Results taken from patent publication US8304519B2, “Compositions and methods for modulating dopamine neurotransmission” (Centre for Addiction and Mental Health, priority 2005, dated 2012).

Key:
[1] = biological target: T1, D2-DAT direct interaction (Homo sapiens, UniProt P14416); assay: In vitro binding assay, blockade of GST-DAT[NT1] binding to [35S]-D2[IL3-2] by peptides; conditions: co-incubation with purified peptide
T1 construct: made in house; host or cells: bacteria (GST fusion, pGEX4T-3)
T1 sequence (P14416 271-373): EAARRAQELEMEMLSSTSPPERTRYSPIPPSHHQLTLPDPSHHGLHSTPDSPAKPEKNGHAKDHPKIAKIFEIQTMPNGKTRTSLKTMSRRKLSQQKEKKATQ
Protocol: (§1) Glutathione beads carrying GST fusion proteins (DAT[NT1] (SEQ ID NO:7), DAT[NT2] (SEQ ID NO:9), DAT[NT3] (SEQ ID NO: 10)) or GST (10-20 μg each) alone was incubated with [35S]-methionine-labelled D2[IL3-2] probe (SEQ ID NO:3) respectively. The beads were then washed 4-6 times with PBS containing 0.5% Triton X-100 and eluted with 10 mM glutathione elution buffer. Eluates were separated by SDS-PAGE and visualized by autoradiography.

[35S]-D2[IL3-2] = biological target: T2, [35S]-D2[IL3-2] (Homo sapiens, UniProt P14416); assay: In vitro binding assay of GST-DAT fusion proteins with [35S]-D2[IL3-2] probe; conditions: autoradiography
T2 construct: made in house
T2 sequence (P14416 271-373): T1 sequence (P14416 271-373)
Protocol: as §1

[2] = systemically injected; cited from earlier work
D2 receptor [3] = biological target: T3, D2 receptor (Homo sapiens, UniProt P14416); assay type: cell-based; parameters: expressed in transfected cells; host or cells: HEK-293 cells co-expressing D2 and DAT; conditions: pre-incubation 150-200 ng/ml, HEK-293 cells co-expressing D2 and DAT
Protocol: Measurement of DA uptake was performed on intact cells as previously described (30). Briefly, 2-4 days following transfection in 24-well plates (˜2×10^5 cells seeded per well) medium was removed and wells were rinsed with 0.5 mL of uptake buffer (5 mM Tris, 7.5 mM HEPES, 120 mM NaCl, 5.4 mM KCl, 1.2 mM CaCl2, 1.2 mM MgSO4, 1 mM ascorbic acid, 5 mM glucose, pH 7.1). […] Wells were rinsed twice with 0.5 mL of uptake buffer and cells were solubilized in 0.5 mL of 1% SDS and collected to measure incorporated radioactivity using a Beckman liquid scintillation counter (LS 6000SC).

D2 receptor [4] = biological target: T3, D2 receptor; assay: DA uptake on D2 activation in cultured midbrain neurons infected with D2 and DAT adenoviruses; assay type: cell-based, rat; parameters: expressed in transfected cells; host or cells: primary rat midbrain neuronal cultures, adenoviral infection
Protocol: (§2) Measurement of DA uptake was performed on intact cells as previously described (30). Briefly, 2-4 days following transfection in 24-well plates (˜2×10^5 cells seeded per well) medium was removed and wells were rinsed with 0.5 mL of uptake buffer (5 mM Tris, 7.5 mM HEPES, 120 mM NaCl, 5.4 mM KCl, 1.2 mM CaCl2, 1.2 mM MgSO4, 1 mM ascorbic acid, 5 mM glucose, pH 7.1). Cells were then preincubated in duplicate with the indicated concentrations of dopaminergic agents (10^−13 to 10^−4 M) 5 min prior to the addition of 0.25 mL of 20 nM [3H]DA (final concentration) and incubated for 10 min at room temperature in a total volume of 0.5 mL. Nonspecific [3H] DA (37-53 Ci/mmol) uptake was defined in the presence of 10 μM mazindol. Wells were rinsed twice with 0.5 mL of uptake buffer and cells were solubilized in 0.5 mL of 1% SDS and collected to measure incorporated radioactivity using a Beckman liquid scintillation counter (LS 6000SC).
(§3) Midbrain cultures from postnatal day 2 rats are prepared by dissection of ventrolateral sections of the mesencephalon (avoiding medial tissue regions) in ice-cold HBSS. […] The single cell suspensions are counted with a hemocytometer for plating at desired densities onto poly-D-Lysine (100 ug/mL) coated tissue culture plates of varying formats or, onto coated glass cover-slips for microscopy. […]

D2 receptor [5] = biological target: T3, D2 receptor; assay: cAMP accumulation in cells co-expressing D2 with DAT; assay type: cell-based; parameters: expressed in transfected cells; host or cells: HEK-293 cells co-expressing D2 and DAT; conditions: data not shown
D2 receptor [6] = biological target: T3, D2 receptor; assay: Cell-ELISA of DAT membrane expression on D2 activation in cultured midbrain neurons; assay type: cell-based, rat; parameters: expressed in transfected cells; host or cells: primary rat midbrain neuronal cultures, adenoviral infection; conditions: cultured midbrain neurons infected with D2 and DAT adenoviruses
Protocol: Cell-ELISA assays (colorimetric assays) were done essentially as previously described (Lee et al., 2002a). Neurons or HEK-293T cells were transiently transfected with the indicated cDNA constructs by the Lipofectamine 2000 (InVitrogen) method (6-10 μg of each indicated cDNA per 7.5×10^6 cells), and equally distributed to two 6-well plates (35 mm/well), and grown for 2-4 days. The same density of co-transfected cells were fixed in 4% paraformaldehyde for 10 min in the absence (non-permeabilized conditions) or the presence (permeabilized conditions) of 1% Triton X-100. Cells were incubated with DAT antibody against the extracellular loop (Chemicon) for the purpose of labeling the proteins on the cell surface under non-permeabilized conditions or the entire transporter pool under permeabilized conditions. […] The cell surface expression of DAT was presented as the ratio of colorimetric readings under non-permeabilized conditions to those under permeabilized conditions. […]
as §3

[7] = Amphetamine-induced hyper-locomotor activity; assay type: in vivo; conditions: ip injection, 3 nmol/g
Protocol: Tests of locomotor activity were conducted in four clear Plexiglas activity chambers (Med Associates Inc., St Albans, Vt.) measuring 43 cm long, 43 cm wide, and 30 cm high. An array of 16×16 photodetectors, spaced 2.5 cm apart, and positioned 2.5 cm above the floor of the chamber was used to detect horizontal locomotor activity as distance traveled. Prior to testing, all mice were first habituated to the apparatus by placing them in the activity chambers for 1 h on three consecutive days. On test days, mice were placed in the activity chamber for 1 h prior to receiving an IP injection of TAT (SEQ ID NO:14), TAT-DAT[NT1-1] (SEQ ID NO:12), or TAT-DAT[NT1-2] peptide (SEQ ID NO: 13). Locomotor activity was then measured for the next 180 min.

D2-DAT coupling = biological target: T4, D2-DAT coupling (Homo sapiens, UniProt P14416); assay: [3H]DA uptake in rat midbrain primary cultures infected with DAT and D2 adenovirus; assay type: cell-based; conditions: 10 μM for 30 minutes, cultured neurons
T4 construct: expressed in transfected cells; host or cells: primary rat midbrain neuronal cultures, adenoviral infection
Protocol: as §2, with “Cells were then preincubated in duplicate with the indicated concentrations of dopaminergic agents (10^−13 to 10^−4 M) 5 min prior to the addition of 0.25 mL of 20 nM [3H]DA” left out
as §3, with “HBSS. Tissue is placed in cold neurobasal/B27 medium (Invitrogen) supplemented with 0.5 mM L-glutamine, and 10 ng/mL bFGF (culture medium).” for “HBSS.”

T3 sequence (P14416 1-414 isoform P14416-2): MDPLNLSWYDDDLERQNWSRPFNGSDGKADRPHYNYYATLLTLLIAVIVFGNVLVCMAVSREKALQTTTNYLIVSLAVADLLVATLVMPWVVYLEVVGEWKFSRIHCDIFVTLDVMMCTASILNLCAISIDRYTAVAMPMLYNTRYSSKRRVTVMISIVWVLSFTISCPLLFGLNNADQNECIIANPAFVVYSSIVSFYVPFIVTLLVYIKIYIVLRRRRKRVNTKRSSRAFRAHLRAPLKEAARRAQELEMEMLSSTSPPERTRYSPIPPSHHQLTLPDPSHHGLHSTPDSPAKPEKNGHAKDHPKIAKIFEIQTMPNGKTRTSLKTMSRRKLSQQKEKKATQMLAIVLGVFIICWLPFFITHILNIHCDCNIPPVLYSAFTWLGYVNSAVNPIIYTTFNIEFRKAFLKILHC
T4 sequence (P14416 1-414 isoform P14416-2): as above

Substance: DAT[NT1-1] (M1-V15) peptide: purified peptide DAT M1-V15, MSKSKCSVGLMSSVV (SEQ ID NO:2) (Human dopamine transporter protein (DAT[NT1-1] M1-V15))
- disruption of the interaction between [35S]-D2[IL3-2] and GST fused DAT[NT1] [1]: disrupted

Substance: GST fused DAT[NT1]: GST fusion protein encoding DAT M1-P26, MSKSKCSVGLMSSVVAPAKEPNAVGP (SEQ ID NO:7)
- hybridization (direct binding) with [35S]-D2[IL3-2] ([35S]-D2[IL3-2]): hybridized

Substance: Tyr-Gly-Arg-Lys-Lys-Arg-Arg-Gln-Arg-Arg-Arg [TAT peptide]
- time after IP injection at which the blood-brain barrier is penetrated [2]: 1 h

Substance: pertussis toxin (PTX)
- blockade of quinpirole-induced decrease in DAT-mediated DA uptake (D2 receptor [3]): blocked
- blockade of inhibition of DAT-mediated DA uptake by activation of D2 receptor (D2 receptor [4]): blocked
- functional block of the ability of the D2 receptor to inhibit cAMP accumulation (D2 receptor [5]): confirmed
- blockade of inhibition of DAT membrane expression by activation of D2 receptor (D2 receptor [6]): blocked

Substance: TAT-DAT[NT1-2] peptide: DAT[NT1-2] (A16-P26) peptide fused to HIV-1 TAT cell-membrane transduction domain (SEQ ID NO:13) (YGRKKRRQRRRAPAKEPNAVGP; HIV virus type 1 TAT protein fused to human dopamine transporter protein (TAT-DAT[NT1-2]))
- behavioural effects of amphetamine (hyper-locomotor activity) [7]: reduce
- DAT-mediated DA uptake (D2-DAT coupling): did not produce any effects
